Assay results reported in the nanobody polyreactivity screen of Harvey et al. (2022).

Assay: yeast display, Sf9 membrane polyspecificity reagent, FACS + sequencing; frameworks hold sequencing errors
Method in brief: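 Galactose-induced (36–48 hours) yeast carrying a synthetic nanobody display library were exposed to 10% biotinylated, detergent-solubilized Sf9 membrane reagent at 4 °C for 1 hour. FACS followed streptavidin microbead enrichment, using low and high (top ~1%) gates for expression (anti-HA) and reagent binding (streptavidin). Colony PCR, MiSeq 2 × 250 sequencing and CDR-length filtering followed. Labels for polyreactivity reflect the gate of origin.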

Sequence: QVQLVESGGGLVQAGGSLRLSCAASGNTFEYYVMGWYRQAPGKERELVAAITWSTGSTYYADSVKGRFTISRDNAKNTVYLQKNSLKPEDTAVYYCAALYYFIFGRPTRFDYWGQGTQVTVSS
- polyreactivity (PSR sort gate): low polyreactivity

Sequence: QVQLVESGGGLVQAGGSLRLSCAASGNTFFYYAMGWYRQAPGKERELVAAINRSGGSTYYADSVKGRFTISRDNAKNTVYLQMNSLKPEDTAVYYCARVLPGGWKSRISDYWGQGTQVTVSS
- polyreactivity (PSR sort gate): low polyreactivity

Sequence: QVQLVESGGGLVQAGGSLRLSCAASGNTFGIYAMGWYRPAPGKERELVAAISSGTSTNYADSVKGRFTISRDNAKNTVYLQMNSLKPEDTAVYYCNADDQYQDVREDYWGQGTQVTVSS
- polyreactivity (PSR sort gate): low polyreactivity

Sequence: QVQLVESGGGLVQAGGSLRLSCAASGNTFGNYGMGWYRQAPGKEREFVAAITSRGTSSYYADSVKGRFTISRDNAKNTVYLQMNSLKPEDTAVYYCNARPRYKYPRYDYWGQGTQVTVSS
- polyreactivity (PSR sort gate): high polyreactivity

Sequence: QVQLVESGGGLVQAGGSLRLSCAASGNTFGYYALGWYRQAPGKERELVAGISSGGSTNYADSVKGRFTISRDNAKKTVYFQMNSLKPEDTAVYYCNARRYWLRYDYWGQVTQVTVSS
- polyreactivity (PSR sort gate): low polyreactivity

Sequence: QVQLVESGGGLVQAGGSLRLSCAASGNTFHSYVMGWYRQAPGKERELVAAITSGGSTYYADSVKGRFTISRDNAKNTVYLQMNSLKPEDTAVYYCAVDAWTGESYWEHYYWGQGTQVTVSS
- polyreactivity (PSR sort gate): low polyreactivity

Sequence: QVQLVESGGGLVQAGGSLRLSCAASGNTFIDYAMGWYRQAPGKETELVAAITRGGRTNYADSVKGRFTISRDNAKNTVYLQMNSLKPEDTAVYYCAAALRRRRADFDYWGQGTQVTVSS
- polyreactivity (PSR sort gate): high polyreactivity

Sequence: QVQLVESGGGLVQAGGSLRLSCAASGNTFIRYAMGWYRQAPGKEREFVATITKRGGSTYYADSVKGRFTISRDNAKNTVYLQMNSLKPEDTAVYYCARGPSGTPNGNTPYGDNRYNSWGQGTQVTVSS
- polyreactivity (PSR sort gate): low polyreactivity

Sequence: QVQLVESGGGLVQAGGSLRLSCAASGNTFKYYAMGWYRQAPGKERELVAAISYSGGSTYYADSVKGRFTISRDNAKNTVYFQMNSLKPEDTAVYYCAADLDSERYFLGQGTQVTVSS
- polyreactivity (PSR sort gate): low polyreactivity

Sequence: QVQLVESGGGLVQAGGSLRLSCAASGNTFLPYAMGWYRQAPGKERELVAAISWSGGSTYYADSVKGRFTISRDNAKNTVYLQMNSLKPEDTAVYYCARRGYQRYLSSYYYWGQGTQVTVSS
- polyreactivity (PSR sort gate): high polyreactivity

Sequence: QVQLVESGGGLVQAGGSLRLSCAASGNTFLYYAMGWYRQAPGKEMELVASINLSDGSTYYADSVKGRFTISRDNAKNTVYLQMNSLKPEDTAVYYCAAVYGGYTIYDYWGQGTQVTVSS
- polyreactivity (PSR sort gate): low polyreactivity

Sequence: QVQLVESGGGLVQAGGSLRLSCAASGNTFNKYAMGWYRQAPGKERELVAAISYSGGSTYYADSVKGRFTISRDNAKNTVYLQMNSLKPEDTAVYYCNAVYYVYPRRYDYWGQGTQVSVSS
- polyreactivity (PSR sort gate): high polyreactivity

Sequence: QVQLVESGGGLVQAGGSLRLSCAASGNTFNPNAMGWYRQAPGKERELVAVIRFRGGSTYYADSVKGRFTISRDNAKNTVYLQMNSLKTEDTAVYDCAADFLYYYLRYYYWGQGTQVTVSS
- polyreactivity (PSR sort gate): high polyreactivity

Sequence: QVQLVESGGGLVQAGGSLRLSCAASGNTFPLYAMGWYRQAPGKEREMVAAITSSAGSTYYADSVKGRFTISRDNAKNTVYLQMNSLKPEDTAVYYCNARRSDGKVVGYSYSHRNVEYWGQGTQVTVSS
- polyreactivity (PSR sort gate): low polyreactivity

Sequence: QVQLVESGGGLVQAGGSLRLSCAASGNTFPPNAMGWSRQAPGKERELVAAISWSGDSTYYADSVKGRFTISRDNAKNTVYLQMNSLKPEDTAVYYCAAAIFGEYEYWGQGTQVTVSS
- polyreactivity (PSR sort gate): low polyreactivity

Sequence: QVQLVESGGGLVQAGGSLRLSCAASGNTFPPNAMGWYRQAPGKERELVAAISWSGDSTYYADSVKGRFTISRDNAKNTVYLQMNSLKPEDTAVYYCAAAIFGEYEYWGQGTQVTVSS
- polyreactivity (PSR sort gate): low polyreactivity

Sequence: QVQLVESGGGLVQAGGSLRLSCAASGNTFREYTMGWYRQAPGKERELVAGISGSGGRTYYADSVKGRFTISRDNAKNTVYLQMNSLKPEDTAVYYCNARWYYGIGYNYWGQGTQVSVSS
- polyreactivity (PSR sort gate): high polyreactivity

Sequence: QVQLVESGGGLVQAGGSLRLSCAASGNTFRWYDMGWYRQAPGKERELVAGITRVGCTNYADSVKGRFTISRDNAKNTVYLQMNSLKPEDTAVYYCAARPRWFYGYPYGIIGYDYWGQGTQVTVSS
- polyreactivity (PSR sort gate): high polyreactivity

Sequence: QVQLVESGGGLVQAGGSLRLSCAASGNTFSTNAMGWYRHAPGKERELVASISTNGGSTYYADSVKGRFTISRDNAKQTVYLQKNSLKPEDTAVYYCAAYVDWGVWAYLYEYWGQGTQVTVSS
- polyreactivity (PSR sort gate): low polyreactivity

Sequence: QVQLVESGGGLVQAGGSLRLSCAASGNTFTFYAMGWYRQAPGKERELVASITGRGGSTYYADSVKGRFTISRDNAKNTVYLQMNSLKPEDTAVYYCNADLPAYGLQGDDYWGQGTQVTVSS
- polyreactivity (PSR sort gate): low polyreactivity

Sequence: QVQLVESGGGLVQAGGSLRLSCAASGNTFTYYAMGWYRQAPGKERELVAAINIDVASTYYADSVKGRFTISRDIAKNTVYLQMNSLKPEDTAVYYCAAEVGVYPVYWYDYWGQGTQVTVSS
- polyreactivity (PSR sort gate): low polyreactivity
